In the assay the target is murine tenascin-C (murine) (UniProt Q80YX1). The assay can be described thus: negative staining transmission electron microscopy; murine TNC with CXCL12 labeled with colloidal gold; gold particles counted along the length of the TNC monomer, 500 TNC molecules.

Results on one substance are retold here after paper PMC8185552.

murine tenascin-C, Q80YX1 23-2110: the stoichiometry N (in general, the number of molecules, sites or subunits per partner or assembly) was found to be 6.
